In general, Kd refers to the concentration at which binding is half-saturated. By koff is commonly meant a measure of how fast the partners let go of each other. Usually kon stands for a measure of how fast the partners come together. Low values mean slower complex formation, high ones faster complex formation.

The values below come from patent US20250034271A1.

This experiment has as its target Histidine-tagged human CD40 protein (hCD40-His) (human) (UniProt P25942). Kind of experiment: SPR, Biacore T200; antibody on Protein A chip, hCD40-His injected; 1:1 fit. For orientation: Surface plasmon resonance follows binding to a sensor surface in real time, without labels.

Histidine-tagged human CD40 protein (hCD40-His) (human), sequence (P25942 21-193 limits assumed): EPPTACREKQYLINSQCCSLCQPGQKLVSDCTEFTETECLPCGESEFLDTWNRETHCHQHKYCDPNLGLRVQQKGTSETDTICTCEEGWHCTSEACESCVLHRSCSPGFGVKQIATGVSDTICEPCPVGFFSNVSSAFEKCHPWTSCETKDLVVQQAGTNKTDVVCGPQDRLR

B1: Dacetuzumab (antibody, part only; not given: constant regions, V domains shown, not shown: another chain or arm of the molecule)
VH: EVQLVESGGGLVQPGGSLRLSCAASGYSFTGYYIHWVRQAPGKGLEWVARVIPNAGGTSYNQKFKGRFTLSVDNSKNTAYLQMNSLRAEDTAVYYCAREGIYWWGQGTLVTVSS
VL: DIQMTQSPSSLSASVGDRVTITCRSSQSLVHSNGNTFLHWYQQKPGKAPKLLIYTVSNRFSGVPSRFSGSGSGTDFTLTISSLQPEDFATYFCSQTTHVPWTFGQGTKVEIK
In turn, B1 displayed a dissociation constant Kd of 20 nM, a dissociation rate constant (koff) of 0.00833 s⁻¹ and an association rate constant (kon) of 417000 M⁻¹ s⁻¹.
